The values below are quoted from earlier work in PMC6764118.

For this series, the target named is Lys199 (UniProt position 223, AKQRLKCASLQ). Briefly: chemical modification.

Consider “Human serum albumin (HSA) (Homo sapiens)”, for which the pKa result was “∼8”.
